This passage reports Kd results from patent publication US20160144003A1 (Scripps Research, published 2016).

One assay concerns the target T1, human GlyRS L129P mutant (human, UniProt P41250 55-739).
T1 construct: also called L129P GlyRS; L129P-His; not shown: His tag
T1 sequence: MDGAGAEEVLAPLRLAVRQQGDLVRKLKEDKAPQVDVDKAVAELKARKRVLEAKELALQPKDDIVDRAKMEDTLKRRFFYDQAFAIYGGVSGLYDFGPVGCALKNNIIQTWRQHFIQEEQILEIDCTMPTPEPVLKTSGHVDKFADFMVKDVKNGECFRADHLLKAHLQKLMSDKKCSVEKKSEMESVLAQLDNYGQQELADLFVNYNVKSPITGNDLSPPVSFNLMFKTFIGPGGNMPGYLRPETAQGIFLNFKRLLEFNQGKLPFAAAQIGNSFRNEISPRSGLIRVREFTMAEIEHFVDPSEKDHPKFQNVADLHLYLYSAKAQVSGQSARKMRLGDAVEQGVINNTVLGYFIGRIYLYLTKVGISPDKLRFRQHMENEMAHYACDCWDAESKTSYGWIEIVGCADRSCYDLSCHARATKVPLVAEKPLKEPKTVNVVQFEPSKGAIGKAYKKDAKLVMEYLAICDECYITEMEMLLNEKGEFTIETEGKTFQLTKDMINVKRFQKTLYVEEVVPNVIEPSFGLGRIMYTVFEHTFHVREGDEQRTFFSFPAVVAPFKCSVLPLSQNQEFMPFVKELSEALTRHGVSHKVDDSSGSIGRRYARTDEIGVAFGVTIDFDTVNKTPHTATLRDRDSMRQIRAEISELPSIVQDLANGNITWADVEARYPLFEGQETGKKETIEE
Put plainly: bio-layer interferometry (Octet RED), NRP1-Fc on Protein G biosensors, global 1:1 fit of five concentrations. Here is the method:
FIGS. 15A-15C show the binding affinity between various GlyRS polypeptides and neuropilin-1 (NRP-1). In FIG. 15A, the binding between NRP-1 and GlyRS (wild-type (WT), CMT-associated mutant L129P, and CMT-associated mutant P234KY) at 1 μM was compared by bio-layer interferometry in Octet RED system. No binding was detected between NRP-1 and WT GlyRS, but strong binding was detected between NRP-1 and each of the CMT-associated mutants L129P and P234KY.
The binding constants between GlyRS CMT mutants (L129P and P234KY) and Neuropilin-1 (NRP1) were measured using Octet RED (ForteBio, Inc.). Octet RED utilizes bio-layer interferometry (BLI) technology that enables real-time analysis of protein-protein interactions on the surface of a fiber optic biosensor. The protein of interest is firstly immobilized on the biosensor and then exposed to the protein analyte in solution. The binding of two proteins changes the optical properties of the biosensor, leading to a shift in the wavelength of reflected light. This shift in wavelength allows the measurement of the determination of the binding constant.
In general terms: Biolayer interferometry detects binding as a change in optical thickness at a sensor tip.

Assay [1] addresses T2, human GlyRS P234KY mutant (human, UniProt P41250 55-739).
T2 sequence: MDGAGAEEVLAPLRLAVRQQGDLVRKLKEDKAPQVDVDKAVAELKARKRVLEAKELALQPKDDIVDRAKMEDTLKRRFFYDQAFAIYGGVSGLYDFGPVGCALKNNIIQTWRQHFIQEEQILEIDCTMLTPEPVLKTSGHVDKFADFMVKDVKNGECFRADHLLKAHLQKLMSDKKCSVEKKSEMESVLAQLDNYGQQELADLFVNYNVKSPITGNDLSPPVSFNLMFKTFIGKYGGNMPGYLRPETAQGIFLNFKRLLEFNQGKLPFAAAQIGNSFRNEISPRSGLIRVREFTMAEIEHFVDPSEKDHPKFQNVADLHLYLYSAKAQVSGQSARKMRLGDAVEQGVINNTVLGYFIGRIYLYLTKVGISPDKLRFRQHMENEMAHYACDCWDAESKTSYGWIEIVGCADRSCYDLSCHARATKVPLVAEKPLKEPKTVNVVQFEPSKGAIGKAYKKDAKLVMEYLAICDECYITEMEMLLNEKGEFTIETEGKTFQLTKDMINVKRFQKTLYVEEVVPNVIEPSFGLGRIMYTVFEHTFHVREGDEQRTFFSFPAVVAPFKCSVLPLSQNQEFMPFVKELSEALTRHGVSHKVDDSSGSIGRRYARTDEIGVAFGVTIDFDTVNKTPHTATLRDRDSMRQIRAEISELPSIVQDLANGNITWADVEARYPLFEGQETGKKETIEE
The assay is described as follows: bio-layer interferometry (Octet RED), NRP1-Fc on Protein G biosensors, global 1:1 fit of three concentrations.

B1: recombinant neuropilin-1/Fc extracellular domain chimeric protein (R&D systems) (Fc fusion)
chain: FRSDKCGGTIKIENPGYLTSPGYPHSYHPSEKCEWLIQAPEPYQRIMINFNPHFDLEDRDCKYDYVEVIDGENEGGRLWGKFCGKIAPSPVVSSGPFLFIKFVSDYETHGAGFSIRYEIFKRGPECSQNYTAPTGVIKSPGFPEKYPNSLECTYIIFAPKMSEIILEFESFDLEQDSNPPGGVFCRYDRLEIWDGFPEVGPHIGRYCGQKTPGRIRSSSGILSMVFYTDSAIAKEGFSANYSVLQSSISEDFKCMEALGMESGEIHSDQITASSQYGTNWSVERSRLNYPENGWTPGEDSYREWIQVDLGLLRFVTAVGTQGAISKETKKKYYVKTYRVDISSNGEDWITLKEGNKAIIFQGNTNPTDVVFGVFPKPLITRFVRIKPASWETGISMRFEVYGCKITDYPCSGMLGMVSGLISDSQITASNQGDRNWMPENIRLVTSRTGWALPPSPHPYINEWLQVDLGDEKIVRGVIIQGGKHRENKVFMRKFKIAYSNNGSDWKMIMDDSKRKAKSFEGNNNYDTPELRAFTPLSTRFIRIYPERATHSGLGLRMELLGCEVEVPTAGPTTPNGNPVDECDDDQANCHSGTGDDFQLTGGTTVLATEKPTIIDSTIQSEFPTYGFNCEFGWGSHKTFCHWEHDSHAQLRWRVLTSKTGPIQDHTGDGNFIYSQADENQKGKVARLVSPVVYSQSSAHCMTFWYHMSGSHVGTLRVKLHYQKPEEYDQLVWMVVGHQGDHWKEGRVLLHKSLKLYQVIFEGEIGKGNLGGIAVDDISINNHIPQEDCAKPTDLDKKNTEIKIDETGSTPGYEEGKGDKNISRKPGNVLKTLDPI
In the case of B1, the values for the Kd (with human GlyRS L129P mutant; in assay [1]) were 36.8 nM and 162 nM, respectively.

In general, Kd refers to the free concentration of one partner at which half of the binding sites on the other are occupied at equilibrium, for simple one-to-one binding. High values mean lower affinity, low ones higher affinity.
